Assay results published in article PMC2699502.

B1: EcoR124I R subunit (HsdR) (enzyme)
chain: MTHQTHTIAESNNFIVLDKYIKAEPTGDSYQSESDLERELIQDLRNQGYEFISVKSQSAMLANVREQLQNLNGVVFNDSEWRRFTEQYLDNPSDGILDKTRKIHIDYICDFIFDDERLENIYLIDKKNLMRNKVQIIQQFEQAGSHANRYDVTILVNGLPLVQIELKKRGVAIREAFNQIHRYSKESFNSENSLFKYLQLFVISNGTDTRYFANTTKRDKNSFDFTMNWAKSDNTLIKDLKDFTATCFQKHTLLNVLVNYSVFDSSQTLLVMRPYQIAATERILWKIKSSFTAKNWSKPESGGYIWHTTGSGKTLTSFKAARLATELDFIDKVFFVVDRKDLDYQTMKEYQRFSPDSVNGSENTAGLKRNLDKDDNKIIVTTIQKLNNLMKAESDLPVYNQQVVFIFDECHRSQFGEAQKNLKKKFKRYYQFGFTGTPIFPENALGSETTASVFGRELHSYVITDAIRDEKVLKFKVDYNDVRPQFKSLETETDEKKLSAAENQQAFLHPMRIQEITQYILNNFRQKTHRTFPGSKGFNAMLAVSSVDAAKAYYATFKRLQEEAANKSATYKPLRIATIFSFAANEEQNAIGEISDETFDTSAMDSSAKEFLDAAIREYNSHFKTNFSTDSNGFQNYYRDLAQRVKNQDIDLLIVVGMFLTGFDAPTLNTLFVDKNLRYHGLMQAFSRTNRIYDATKTFGNIVTFRDLERSTIDAITLFGDKNTKNVVLEKSYTEYMEGFTDAATGEAKRGFMTVVSELEQRFPDPTSIESEKEKKDFVKLFGEYLRAENILQNYDEFATLKALQQIDLSDPVAVEKFKAEHYVDDEKFAELQTIRLPADRKIQDYRSAYNDIRDWQRREKEAEKKEKSTTDWDDVVFEVDLLKSQEINLDYILGLIFEHNRQNKGKGEMIEEVKRLIRSSLGNRAKEGLVVDFIQQTNLDDLPDKASIIDAFFTFAQREQQREAEALIKEENLNEDAAKRYIRTSLKREYATENGTELNETLPKLSPLNPQYKTKKQAVFQKIVSFIEKFKGVGGKI
B2: EcoR124I M subunit (HsdM) (enzyme)
chain: MKMTSIQQRAELHRQIWQIANDVRGSVDGWDFKQYVLGALFYRFISENFSSYIEAGDDSICYAKLDDSVITDDIKDDAIKTKGYFIYPSQLFCNVAAKANTNDRLNADLNSIFVAIESSAYGYPSEADIKGLFADFDTTSNRLGNTVKDKNARLAAVLKGVEGLKLGDFNEHQIDLFGDAYEFLISNYAANAGKSGGEFFTPQHVSKLIAQLAMHGQTHVNKIYDPAAGSGSLLLQAKKQFDNHIIEEGFFGQEINHTTYNLARMNMFLHNINYDKFDIKLGNTLTEPHFRDEKPFDAIVSNPPYSVKWIGSDDPTLINDERFAPAGVLAPKSKADFAFVLHALNYLSAKGRAAIVCFPGIFYRGGAEQKIRQYLVDNNYVETVISLAPNLFFGTTIAVNILVLSKHKTDTNVQFIDASELFKKETNNNILTDAHIEQIMQVFASKEDVAHLAKSVAFETVVANDYNLSVSSYVEAKDNREIIDIAELNAELKTTVSKIDQLRKDIDAIVAEIEGCEVQK

Target: EcoR124I S subunit (HsdS) (UniProt P10485)
UniProt P10485, sequence (P10485 whole entry): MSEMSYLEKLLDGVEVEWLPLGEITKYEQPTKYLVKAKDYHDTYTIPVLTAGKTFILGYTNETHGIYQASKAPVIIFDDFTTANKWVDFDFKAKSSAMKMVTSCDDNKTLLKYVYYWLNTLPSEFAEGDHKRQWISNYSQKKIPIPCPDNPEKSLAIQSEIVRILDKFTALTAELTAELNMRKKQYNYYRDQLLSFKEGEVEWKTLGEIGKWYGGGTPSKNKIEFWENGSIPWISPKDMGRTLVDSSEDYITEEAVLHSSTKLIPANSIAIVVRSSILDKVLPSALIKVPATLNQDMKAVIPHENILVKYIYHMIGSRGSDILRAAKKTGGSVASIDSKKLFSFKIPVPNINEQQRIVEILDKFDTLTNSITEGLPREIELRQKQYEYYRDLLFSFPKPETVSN

Binder	stoichiometry N
B1	1 R per S
B2	2 M per S
